The values that follow come from patent publication US20220186223, “T-LYMPHOCYTE BINDING APTAMERS” (Aummune Ltd., published 2022).

Chain of CD3 epsilon (CD3ε), recombinant extracellular Fc chimera (P07766 23-126, change not shown, one chain of several): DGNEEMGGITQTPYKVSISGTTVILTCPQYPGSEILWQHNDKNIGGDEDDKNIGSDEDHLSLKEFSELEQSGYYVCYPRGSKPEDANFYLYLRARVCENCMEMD

The series concerns the target CD3 epsilon (CD3ε), recombinant extracellular Fc chimera (Homo sapiens, UniProt P07766 P07766:23-126). In words: HPLC size exclusion shift, 1 hr 37 C and 4 C. The settings on record: tags: Fc chimera, His tag; Abcam ab220590; label: Cy5 via hybridised CpG'-Cy5 complementary strand. The method, then: 1 μM of folded Cy5 labeled aptamer was mixed with 50 µL of protein to a final volume of 60 ul and incubated for 1 hr at 4° C. or 37° C. Next, to detect the Cy-labelled aptamers, samples were analyzed at 570 nm absorption via HPLC ProSEC 300S size exclusion column (Agilent).
Top five candidates (CS6, CS7, CS8, CS8c, and CS9 SEQ ID NO. 1-5) were synthesized with a 5(5′) phosphothioated CpG motif and assayed for Human CD3ε (hCD3ε) binding via the HPLC size exclusion column. In this method, the aptamers were labelled with Cy5 complementary sequence to the CpG site (Cy5-CpG′). Then, the folded-labelled candidates are incubated, each, with the CD3ε- recombinant protein or with negative control IgG1 (1 hr at 37° C. and 4° C.) and analyzed by HPLC ProSEC 300S size exclusion column (Agilent) at 570 nm absorption. Upon protein binding, the aptamer-protein complex has a greater mass than a free aptamer and as a result, the retention time (RT) at the column is expected to be shorter. Inversely, in the case of non-binding aptamer, the RT in the presence of protein will be the same as in the absence of the protein. As a control, PolyT sequence was used.
(SEC sorts molecules by how far they enter the pores of the column.)
Take TTGTAAGGACTGCTTAGGATTGCGAAAACAATATTCGTAT (ssDNA, synthesized with 5' CpG motif having 5 PS linkages (extension not in ref)) [CS9]: the binding result is reported as “binds”.

For the molecule CATTTCATAGGGCTGCTTAGGATTGCGAAGGTAATGCCAG (ssDNA, synthesized with 5' CpG motif having 5 PS linkages (extension not in ref)) [CS7], the binding result is on record as “binds”.

Take CTTTTAGGTCTGCTTAGGATTGCGAAAAAAG (ssDNA, synthesized with 5' CpG motif having 5 PS linkages (extension not in ref)) [CS8c (CS8cut)]: the binding result is listed as “binds”.

As for CCCTTACCCCTTTTAGGTCTGCTTAGGATTGCGAAAAAAG (ssDNA, synthesized with 5' CpG motif having 5 PS linkages (extension not in ref)) [CS8], the binding result is “binds”.
